The text below walks through data of patent US20250109212A1 (BIOSION, published 2025).

Experiment [1] concerns the target T1, recombinant human CD40-his protein (Cat #: CD0-H5228, Acro biosystems) (human, UniProt P25942 21-193).
T1 construct: Bought protein
Put plainly: SPR (Biacore T200), sample on Protein A chip, antigen-his analyte, 1:1 fit. The source says: (§1) The purified recombinant fusion proteins were characterized for their binding affinity and binding kinetics by Biacore T200 system (GE healthcare, Pittsburgh, PA, USA). The anti-CD40 antibody HuCD40-C1H1-V2 (having the heavy chain and the light chain of SEQ ID NOs: 19 and 20), Selicrelumab (an agonistic anti-CD40 antibody, Roche Inc., prepared in-house with heavy and light chains of SEQ ID NOs: 27 and 28), and SIRPα-Fc fusion proteins, including SIRPαV2D1M1-Fc (IgG2) (SEQ ID NO: 21, X1=I, X2=R, X3=T, X4=K, X5=F), SIRPαV2D1M2-Fc (IgG2) (SEQ ID NO: 21, X1=I, X2=R, X3=T, X4=R, X5=V), SIRPα-isoform2-Fc (SEQ ID NO: 25) were used as positive controls.
(§2) A Protein A chip (Cat #: 29-1275-56, GE healthcare) was used for affinity determination. The recombinant fusion proteins of the disclosure and the positive controls each at the concentration of 2 μg/ml were respectively flowed onto the chip at a flow rate of 10 μl/min. Then, serially diluted recombinant human CD40-his proteins (Cat #: CD0-H5228, Acro biosystems), human CD47-his proteins (Cat #: CD7-H5227, Acro biosystems), cynomolgus CD40-his proteins (Biosion in house made, SEQ ID NO: 29) or cynomolgus CD47-his proteins (Cat #: CD7-C52H1, Acro biosystems), 2-fold dilution in HBS-EP⁺ buffer (provided by Biacore) with a starting concentration of 200 nM, were flowed onto the chip at a flow rate of 30 μl/min. The association kinetics was followed for 2 minutes and the dissociation kinetics was followed for 10 minutes. The association and dissociation curves were fit to a 1:1 Langmuir binding model using the Biacore evaluation software.
(Surface plasmon resonance follows binding to a sensor surface in real time, without labels.)

Experiment [2] deals with T2, human CD47-his protein (Cat #: CD7-H5227, Acro biosystems) (human, UniProt Q08722 19-139).
T2 construct: Bought protein
T2 sequence (Q08722 19-139 limits assumed): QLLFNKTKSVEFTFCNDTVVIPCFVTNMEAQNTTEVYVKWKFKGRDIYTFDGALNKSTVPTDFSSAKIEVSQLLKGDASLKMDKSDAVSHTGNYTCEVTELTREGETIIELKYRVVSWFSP
The experiment is described as above.
From the text: as §1, §2

Experiment [3] has as its target T3, cynomolgus CD40-his protein (Biosion in house made) (cynomolgus, UniProt P25942 21-191 (human entry), limits assumed).
T3 construct: also called Cyno CD40-his
T3 chain: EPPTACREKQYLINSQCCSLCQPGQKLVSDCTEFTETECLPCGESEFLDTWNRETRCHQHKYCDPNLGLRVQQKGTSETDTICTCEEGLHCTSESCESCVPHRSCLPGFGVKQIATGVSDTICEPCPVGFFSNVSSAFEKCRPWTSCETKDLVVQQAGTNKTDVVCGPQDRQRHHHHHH
Described as above.
From the text: as §1, §2

The target in experiment [4] is T4, cynomolgus CD47-his protein (Cat #: CD7-C52H1, Acro biosystems) (cynomolgus, UniProt A0A2K5X523 19-139).
T4 construct: Bought protein; also called Cyno CD47-his
Described as above.
From the text: as §1, §2

For experiment [5], the target named is human CD40-Fc protein (Cat #: CD0-H5253, ACRO Biosystems) (human, UniProt P25942 21-193). Put plainly: dual-binding ELISA: human CD40-Fc coated, binder titrated, detected with human CD47-his and anti-His-HRP, OD450. As for the experimental part: The binding activity of the recombinant fusion proteins to human CD40 and CD47 was also tested by dual-binding ELISA assay. Briefly, 100 μl/well human CD40-Fc proteins (Cat #: CD0-H5253, ACRO Biosystems) were coated on 96-well plates at 0.2 μg/mL in PBS and incubated overnight at 2-8° C. The next day, the plates were washed 3 times using wash buffer (PBS+0.05% v/v Tween-20, PBST), and then blocked with block buffer (PBS+1% w/v BSA) for 3 hours at 37° C. The plates were then washed 3 times using the wash buffer.
Serially diluted recombinant fusion proteins of the disclosure or controls (starting at 100 nM with a 6-fold serial dilution) in block buffer were added to the CD40-Fc bound plates, 100 μL per well, and incubated at 37° C. for 1 hour. The plates were washed 3 times using wash buffer, and then added and incubated for 1 hour at 37° C. with 100 μl/well 3 μg/mL human CD47-his protein (Cat #: CD7-H5227, ACRO Biosystems). The plates were washed again using wash buffer, added with 100 μl/well Anti-His tag Antibody (HRP) (1:2000 dilution in block buffer, Cat #: 105327-MM02T-H, Sino Biological) and incubated for 1 hour at 37° C. The plates were washed again using wash buffer. […] The absorbance was read using a microplate reader set to 450 nm, then the OD (450) values were plotted against the recombinant fusion protein or controls concentration. Data was analyzed using Graphpad Prism and EC₅₀ values were reported.
On the technique in general: ELISA stands for enzyme-linked immunosorbent assay.

Experiment [6] addresses T5, biotin-labeled human CD47-Fc (Biosion in house made) (human, biotin-labeled (sites not given)).
T5 construct: also called Human CD47-Fc protein
Put plainly: competitive ELISA: binder premixed with biotin-labeled human CD47-Fc, blocked partner coated human CD172a-Fc, OD(450-630). Here is the method:
The ability of the recombinant fusion proteins of the disclosure to block CD47-CD172a binding was measured in a competitive ELISA assay. Briefly, 100 μl/well human CD172a-Fc proteins (prepared in-house with amino acid sequence of SEQ ID NO: 24) were coated on 96-well micro plates at 2 μg/mL in coating buffer (carbonate/bicarbonate buffer) and incubated overnight at 4° C. The next day, the plates were washed once with wash buffer (PBS+0.05% v/v Tween-20, PBST), and then blocked with 5% w/v non-fatty milk in PBST for 2 hours at 37° C. The plates were then washed 4 times using wash buffer.
Serially diluted recombinant fusion proteins of the disclosure or controls (starting at 100 nM with a 5-fold serial dilution) were mixed with 20 ng/ml biotin-labeled human CD47-Fc (Biosion in house made, SEQ ID NO: 23) in PBST with 2.5% w/v non-fatty milk. The mixtures were incubated at 37° C. for 40 minutes, and respectively added to the CD172a-Fc bound plates, 100 μl per well. The plates were incubated at 37° C. for 40 minutes, washed 4 times using wash buffer, added with 100 μl/well streptavidin conjugated HRP (1:10000 dilution in PBST buffer, Cat #: 016-030-084, Jackson ImmunoResearch), incubated for 40 minutes at 37° C., and washed again using wash buffer. […] The plates were read on a microplate reader using the dual wavelength mode with 450 nm for TMB and 630 nm as the reference wavelength, and the OD (450-630) values were plotted against the recombinant fusion protein or controls concentration. Data was analyzed using Graphpad Prism and IC₅₀ values were reported. Wild-type SIRPαV2D1-Fc (IgG2) (SEQ ID NO: 21, X1=V, X2=K, X3=S, X4=K, X5=F) was used as a positive control.

B1: BSI038×S-004 (bispecific antibody, human IgG2, kappa)
heavy: EEELQVIQPDKSVSVAAGESAILHCTITSLIPVGPIQWFRGAGPARELIYNQREGHFPRVTTVSETTKRENMDFSISISNITPADAGTYYCVKFRKGSPDTEFKSGAGTELSVRAKPSAPVVSGPAARATPGGGGSGGGGSEVQLVESGGGLVKPGGSLRLSCAASGFTFSNYGISWVRQAPGKGLEWVSSISSGGDNTYYPDNVKGRFTISRDNAKNSLYLQMNSLRAEDTAVYYCARAGEKAMDYWGQGTLVTVSSASTKGPSVFPLAPCSRSTSESTAALGCLVKDYFPEPVTVSWNSGALTSGVHTFPAVLQSSGLYSLSSVVTVPSSNFGTQTYTCNVDHKPSNTKVDKTVERKCCVECPPCPAPPVAGPSVFLFPPKPKDTLMISRTPEVTCVVVDVSHEDPEVQFNWYVDGVEVHNAKTKPREEQFNSTFRVVSVLTVVHQDWLNGKEYKCKVSNKGLPAPIEKTISKTKGQPREPQVYTLPPSREEMTKNQVSLTCLVKGFYPSDIAVEWESNGQPENNYKTTPPMLDSDGSFFLYSKLTVDKSRWQQGNVFSCSVMHEALHNHYTQKSLSLSPGK
light: EIVLTQSPATLSLSPGERATLSCRASQTINNNLHWYQQKPGQAPRLLIKYASQSISGIPARFSGSGSGTDFTLTISSLEPEDFAVYFCQQFSSWPLTFGGGTKVEIKRTVAAPSVFIFPPSDEQLKSGTASVVCLLNNFYPREAKVQWKVDNALQSGNSQESVTEQDSKDSTYSLSSTLTLSKADYEKHKVYACEVTHQGLSSPVTKSFNRGEC
notes: SIRPαV2D1 variant M1 linked to N-terminus of each heavy chain of HuCD40-C1H1-V2 (human IgG2)
As usually defined, the Kd is the free concentration of one partner at which half of the binding sites on the other are occupied at equilibrium, for simple one-to-one binding. What is called koff is a measure of how fast the partners let go of each other. The term kon denotes the rate constant with which the complex forms. By EC50 is commonly meant the concentration needed to bring the measured effect to its halfway point. Lower therefore signals an effect from little substance. One may read the IC50 as the point on the concentration scale where inhibition reaches its midpoint. A high value points to weaker potency. For B1, the Kd in experiment [1] was determined as 0.937 nM; in experiment [2], 0.987 nM; in experiment [3], 2.16 nM; in experiment [4], 6.08 nM. For the same molecule, the off-rate constant (koff) in experiment [1] was found to be 0.00164 s⁻¹; in experiment [2], 0.000586 s⁻¹; in experiment [3] it was 0.00163 s⁻¹; in experiment [4], 0.000576 s⁻¹. In addition, the kon in experiment [1] came out at 1.75e+06 M⁻¹ s⁻¹; in experiment [2], 594000 M⁻¹ s⁻¹; in experiment [3], 753000 M⁻¹ s⁻¹; in experiment [4], 94800 M⁻¹ s⁻¹. The molecule further came in with an EC50 in experiment [5] of 0.213 nM. In experiment [6], this molecule displayed an IC50 of 2.74 nM.

B2: BSI038×S-005 (bispecific antibody, human IgG2, kappa)
heavy: EEELQVIQPDKSVSVAAGESAILHCTITSLIPVGPIQWFRGAGPARELIYNQREGHFPRVTTVSETTRRENMDFSISISNITPADAGTYYCVKFRKGSPDTEVKSGAGTELSVRAKPSAPVVSGPAARATPGGGGSGGGGSEVQLVESGGGLVKPGGSLRLSCAASGFTFSNYGISWVRQAPGKGLEWVSSISSGGDNTYYPDNVKGRFTISRDNAKNSLYLQMNSLRAEDTAVYYCARAGEKAMDYWGQGTLVTVSSASTKGPSVFPLAPCSRSTSESTAALGCLVKDYFPEPVTVSWNSGALTSGVHTFPAVLQSSGLYSLSSVVTVPSSNFGTQTYTCNVDHKPSNTKVDKTVERKCCVECPPCPAPPVAGPSVFLFPPKPKDTLMISRTPEVTCVVVDVSHEDPEVQFNWYVDGVEVHNAKTKPREEQFNSTFRVVSVLTVVHQDWLNGKEYKCKVSNKGLPAPIEKTISKTKGQPREPQVYTLPPSREEMTKNQVSLTCLVKGFYPSDIAVEWESNGQPENNYKTTPPMLDSDGSFFLYSKLTVDKSRWQQGNVFSCSVMHEALHNHYTQKSLSLSPGK
light: EIVLTQSPATLSLSPGERATLSCRASQTINNNLHWYQQKPGQAPRLLIKYASQSISGIPARFSGSGSGTDFTLTISSLEPEDFAVYFCQQFSSWPLTFGGGTKVEIKRTVAAPSVFIFPPSDEQLKSGTASVVCLLNNFYPREAKVQWKVDNALQSGNSQESVTEQDSKDSTYSLSSTLTLSKADYEKHKVYACEVTHQGLSSPVTKSFNRGEC
notes: SIRPαV2D1 variant M2 linked to N-terminus of each heavy chain of HuCD40-C1H1-V2 (human IgG2)
B2: the Kd is 0.935 nM in experiment [1], 1.15 nM in experiment [2], 2.2 nM in experiment [3] and 5.39 nM in experiment [4]. The koff in experiment [1] stood at 0.00165 s⁻¹; in experiment [2], 0.000598 s⁻¹; in experiment [3], 0.00167 s⁻¹; in experiment [4], 0.000495 s⁻¹. In addition, the kon in experiment [1] stood at 1.77e+06 M⁻¹ s⁻¹; in experiment [2] it was 518000 M⁻¹ s⁻¹; in experiment [3], 759000 M⁻¹ s⁻¹; in experiment [4], 91800 M⁻¹ s⁻¹. The EC50 in experiment [5] came out at 0.197 nM. In addition, the IC50 in experiment [6] came out at 2.5 nM.
